# T1: BRAVO-mVenus (BRASSINOSTEROIDS AT VASCULAR AND ORGANIZING CENTRE) (Arabidopsis thaliana, UniProt Q6R053 1-323)
# T1 construct: BRAVO, R2R3-MYB transcription factor of Arabidopsis thaliana; the CDS amplified from cDNA; FRET donor; source: N. benthamiana abaxial epidermal leaf cells, transiently expressed (β-estradiol inducible promoter), in cells
# T1 sequence (looked up): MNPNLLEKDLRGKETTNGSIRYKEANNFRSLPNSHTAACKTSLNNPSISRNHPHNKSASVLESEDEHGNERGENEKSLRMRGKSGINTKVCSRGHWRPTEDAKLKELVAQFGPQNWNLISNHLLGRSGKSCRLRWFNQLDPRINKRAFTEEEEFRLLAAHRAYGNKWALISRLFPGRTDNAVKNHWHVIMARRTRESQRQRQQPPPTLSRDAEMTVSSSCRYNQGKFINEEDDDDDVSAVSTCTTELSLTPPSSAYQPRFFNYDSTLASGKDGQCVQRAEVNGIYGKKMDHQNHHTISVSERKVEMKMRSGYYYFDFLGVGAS
# T2: WOX5-mV(N) PLT3-mV(C) heterodimer (BiFC donor) (Arabidopsis thaliana, UniProt Q8H1D2 1-182; Q52QU2 1-581)
# T2 construct: WUSCHEL-RELATED HOMEOBOX 5 (WOX5) of Arabidopsis thaliana; the CDS, described in Burkart et al, 2022; PLETHORA 3 (PLT3) of Arabidopsis thaliana; The two halves of mVenus are reconstituted in the heterodimer, which serves as FRET donor; also called heterodimer of WOX5 and PLT3; source: N. benthamiana abaxial epidermal leaf cells, transiently co-expressed, in cells
# T2 sequence (looked up) 1: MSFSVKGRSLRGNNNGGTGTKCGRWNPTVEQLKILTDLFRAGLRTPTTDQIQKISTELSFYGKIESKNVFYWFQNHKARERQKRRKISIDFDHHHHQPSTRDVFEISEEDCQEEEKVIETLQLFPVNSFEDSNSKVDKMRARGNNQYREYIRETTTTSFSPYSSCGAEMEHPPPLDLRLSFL
# T2 sequence (looked up) 2: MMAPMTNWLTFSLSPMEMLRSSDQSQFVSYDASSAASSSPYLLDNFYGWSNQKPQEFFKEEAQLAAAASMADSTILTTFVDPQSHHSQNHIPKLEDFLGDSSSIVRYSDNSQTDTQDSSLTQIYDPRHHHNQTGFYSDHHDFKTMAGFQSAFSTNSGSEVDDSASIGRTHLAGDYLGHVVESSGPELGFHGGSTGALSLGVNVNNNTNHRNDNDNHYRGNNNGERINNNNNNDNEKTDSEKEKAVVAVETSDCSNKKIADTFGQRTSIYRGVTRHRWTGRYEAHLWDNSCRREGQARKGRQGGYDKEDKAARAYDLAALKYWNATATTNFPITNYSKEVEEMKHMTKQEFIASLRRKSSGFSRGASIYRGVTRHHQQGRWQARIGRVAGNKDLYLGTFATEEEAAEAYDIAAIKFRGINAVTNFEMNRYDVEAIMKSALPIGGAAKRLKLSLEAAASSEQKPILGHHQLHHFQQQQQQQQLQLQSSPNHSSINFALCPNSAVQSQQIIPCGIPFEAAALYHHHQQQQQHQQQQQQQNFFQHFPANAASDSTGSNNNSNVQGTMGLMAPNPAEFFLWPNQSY
# T3: BRAVO-mV(N) PLT3-mV(C) heterodimer (BiFC donor) (Arabidopsis thaliana, UniProt Q6R053 1-323; Q52QU2 1-581)
# T3 construct: BRAVO, R2R3-MYB transcription factor of Arabidopsis thaliana; the CDS amplified from cDNA; PLETHORA 3 (PLT3) of Arabidopsis thaliana; the CDS, described in Burkart et al, 2022; The two halves of mVenus are reconstituted in the heterodimer, which serves as FRET donor; source: N. benthamiana abaxial epidermal leaf cells, transiently co-expressed, in cells
# T3 sequence (looked up) 1: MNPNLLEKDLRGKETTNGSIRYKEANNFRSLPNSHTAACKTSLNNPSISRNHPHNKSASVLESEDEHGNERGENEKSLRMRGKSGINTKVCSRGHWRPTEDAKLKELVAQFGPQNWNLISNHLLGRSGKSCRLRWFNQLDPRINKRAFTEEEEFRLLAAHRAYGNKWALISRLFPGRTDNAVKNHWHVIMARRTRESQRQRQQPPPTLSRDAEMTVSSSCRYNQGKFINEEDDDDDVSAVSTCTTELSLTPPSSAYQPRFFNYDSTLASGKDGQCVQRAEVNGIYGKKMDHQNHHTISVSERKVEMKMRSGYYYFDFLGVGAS
# T3 sequence (looked up) 2: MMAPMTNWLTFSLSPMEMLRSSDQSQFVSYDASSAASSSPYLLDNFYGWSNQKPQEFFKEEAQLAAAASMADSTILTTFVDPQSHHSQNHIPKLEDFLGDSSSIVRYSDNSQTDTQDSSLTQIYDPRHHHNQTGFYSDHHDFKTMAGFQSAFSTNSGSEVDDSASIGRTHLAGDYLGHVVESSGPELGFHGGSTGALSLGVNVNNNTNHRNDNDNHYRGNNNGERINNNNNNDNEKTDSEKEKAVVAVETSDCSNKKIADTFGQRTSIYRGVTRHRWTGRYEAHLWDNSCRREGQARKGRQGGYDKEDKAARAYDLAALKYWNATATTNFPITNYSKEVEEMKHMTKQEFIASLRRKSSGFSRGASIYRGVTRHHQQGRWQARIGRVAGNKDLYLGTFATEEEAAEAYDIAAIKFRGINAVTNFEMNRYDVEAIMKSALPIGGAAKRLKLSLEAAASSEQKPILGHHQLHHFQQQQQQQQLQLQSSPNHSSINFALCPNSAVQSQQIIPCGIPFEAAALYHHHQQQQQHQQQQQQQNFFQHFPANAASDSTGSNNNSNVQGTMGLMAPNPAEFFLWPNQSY
# Tests used:
# [1] = target: WOX5-mV(N) PLT3-mV(C) heterodimer (BiFC donor) (Arabidopsis thaliana) (UniProt Q8H1D2); experiment: split reporter (BiFC, NanoBiT) + FRET or BRET; BiFC-FRET-FLIM in nuclei of N. benthamiana epidermal leaf cells; mVenus donor split into mV(N) and mV(C) on two proteins, third protein with mCherry as acceptor; 'binding' [%]; binding cutoff 10%
# [2] = target: BRAVO-mVenus (BRASSINOSTEROIDS AT VASCULAR AND ORGANIZING CENTRE) (Arabidopsis thaliana) (UniProt Q6R053); experiment: FRET or BRET; FRET-FLIM in nuclei of transiently expressing N. benthamiana epidermal leaf cells; mVenus fusion as donor, mCherry fusion as acceptor; 'binding' [%] is the amplitude of the FRET component (number of donor molecules undergoing FRET); binding cutoff 10%; a binding not significantly different from the negative control (mCherry-NLS) is regarded as no interaction
# [3] = target: T1, BRAVO-mVenus (BRASSINOSTEROIDS AT …); experiment: as above; conditions: partners not purified
# [4] = target: T2, WOX5-mV(N) PLT3-mV(C) heterodimer (BiFC …); experiment: split reporter (BiFC, NanoBiT) + FRET or BRET; BiFC-FRET-FLIM in nuclei of N. benthamiana epidermal leaf cells; mVenus donor split into mV(N) and mV(C) on two proteins, third protein with mCherry as acceptor; 'binding' [%]; binding cutoff 10%; conditions: partners not purified
# [5] = target: T3, BRAVO-mV(N) PLT3-mV(C) heterodimer …; experiment: as above; conditions: partners not purified
# Chain of BES1D-mCherry (BRI1-EMS-SUPPRESSOR 1, BES1D form) (Q9LN63 whole entry): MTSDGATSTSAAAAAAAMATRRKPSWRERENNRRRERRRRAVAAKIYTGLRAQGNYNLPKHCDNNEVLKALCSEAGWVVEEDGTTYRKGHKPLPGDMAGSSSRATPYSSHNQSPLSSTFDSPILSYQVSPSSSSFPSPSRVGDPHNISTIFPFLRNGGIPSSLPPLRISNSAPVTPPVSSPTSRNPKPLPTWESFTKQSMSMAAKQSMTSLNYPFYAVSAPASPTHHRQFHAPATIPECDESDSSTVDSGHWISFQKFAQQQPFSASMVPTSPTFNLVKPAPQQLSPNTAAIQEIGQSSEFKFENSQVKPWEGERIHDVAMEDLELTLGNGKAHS
Molecule,"binding (FRET-FLIM, share of donor molecules undergoing FRET) [1] [%]","binding (FRET-FLIM, share of donor molecules undergoing FRET) [2] [%]","binding (FRET-FLIM, share of donor molecules undergoing FRET) [3] [%]","binding (FRET-FLIM, share of donor molecules undergoing FRET) [4] [%]","binding (FRET-FLIM, share of donor molecules undergoing FRET) [5] [%]"
"BES1D-mCherry (BRI1-EMS-SUPPRESSOR 1, BES1D form) (from UniProt Q9LN63 1-335) (natural protein)",18.7,27.4,–,–,–
"TPL-mCherry (TOPLESS) (natural protein, Arabidopsis thaliana, UniProt Q94AI7 1-1131, looked up, TOPLESS (TPL) of Arabidopsis thaliana; the CDS amplified from cDNA; FRET acceptor; source: N. benthamiana abaxial epidermal leaf cells, transiently expressed (β-estradiol inducible), in cells) MSSLSRELVFLILQFLDEEKFKETVHKLEQESGFFFNMKYFEDEVHNGNWDEVEKYLSGFTKVDDNRYSMKIFFEIRKQKYLEALDKHDRPKAVDILVKDLKVFSTFNEELFKEITQLLTLENFRENEQLSKYGDTKSARAIMLVELKKLIEANPLFRDKLQFPTLRNSRLRTLINQSLNWQHQLCKNPRPNPDIKTLFVDHSCGPPNGARAPSPVNNPLLGGIPKAGGFPPLGAHGPFQPTASPVPTPLAGWMSSPSSVPHPAVSAGAIALGGPSIPAALKHPRTPPTNASLDYPSADSEHVSKRTRPMGISDEVNLGVNMLPMSFSGQAHGHSPAFKAPDDLPKTVARTLSQGSSPMSMDFHPIKQTLLLVGTNVGDIGLWEVGSRERLVQKTFKVWDLSKCSMPLQAALVKEPVVSVNRVIWSPDGSLFGVAYSRHIVQLYSYHGGEDMRQHLEIDAHVGGVNDISFSTPNKQLCVITCGDDKTIKVWDAATGVKRHTFEGHEAPVYSVCPHYKENIQFIFSTALDGKIKAWLYDNMGSRVDYDAPGRWCTTMAYSADGTRLFSCGTSKDGESFIVEWNESEGAVKRTYQGFHKRSLGVVQFDTTKNRYLAAGDDFSIKFWDMDAVQLLTAIDGDGGLQASPRIRFNKEGSLLAVSGNENVIKIMANSDGLRLLHTFENISSESSKPAINSIAAAAAAAATSAGHADRSANVVSIQGMNGDSRNMVDVKPVITEESNDKSKIWKLTEVSEPSQCRSLRLPENLRVAKISRLIFTNSGNAILALASNAIHLLWKWQRNERNATGKATASLPPQQWQPASGILMTNDVAETNPEEAVPCFALSKNDSYVMSASGGKISLFNMMTFKTMATFMPPPPAATFLAFHPQDNNIIAIGMDDSTIQIYNVRVDEVKSKLKGHSKRITGLAFSNVLNVLVSSGADAQLCVWNTDGWEKQRSKVLPLPQGRPNSAPSDTRVQFHQDQAHFLVVHETQLAIYETTKLECMKQWAVRESLAPITHATFSCDSQLVYASFMDATVCVFSSANLRLRCRVNPSAYLPASLSNSNVHPLVIAAHPQEPNMFAVGLSDGGVHIFEPLESEGKWGVAPPAENGSASGAPTAPSVGASASDQPQR",–,–,26.7 ± 9.8,23.3 ± 8.3,21.1 ± 8.3
"WOX5-mCherry (WUSCHEL-RELATED HOMEOBOX 5) (natural protein, Arabidopsis thaliana, UniProt Q8H1D2 1-182, looked up, WUSCHEL-RELATED HOMEOBOX 5 (WOX5), homeodomain transcription factor of Arabidopsis thaliana; the CDS, described in Burkart et al, 2022; FRET acceptor; construct XVE:WOX5-mCherry of Burkart et al, 2022; source: N. benthamiana abaxial epidermal leaf cells, transiently expressed (β-estradiol inducible), in cells) MSFSVKGRSLRGNNNGGTGTKCGRWNPTVEQLKILTDLFRAGLRTPTTDQIQKISTELSFYGKIESKNVFYWFQNHKARERQKRRKISIDFDHHHHQPSTRDVFEISEEDCQEEEKVIETLQLFPVNSFEDSNSKVDKMRARGNNQYREYIRETTTTSFSPYSSCGAEMEHPPPLDLRLSFL",–,–,22.4 ± 14.1,–,29.8 ± 10.6
"BRAVO-mCherry (natural protein, Arabidopsis thaliana, UniProt Q6R053 1-323, looked up, BRAVO, R2R3-MYB transcription factor of Arabidopsis thaliana; the CDS amplified from cDNA; FRET acceptor; source: N. benthamiana abaxial epidermal leaf cells, transiently expressed (β-estradiol inducible), in cells) MNPNLLEKDLRGKETTNGSIRYKEANNFRSLPNSHTAACKTSLNNPSISRNHPHNKSASVLESEDEHGNERGENEKSLRMRGKSGINTKVCSRGHWRPTEDAKLKELVAQFGPQNWNLISNHLLGRSGKSCRLRWFNQLDPRINKRAFTEEEEFRLLAAHRAYGNKWALISRLFPGRTDNAVKNHWHVIMARRTRESQRQRQQPPPTLSRDAEMTVSSSCRYNQGKFINEEDDDDDVSAVSTCTTELSLTPPSSAYQPRFFNYDSTLASGKDGQCVQRAEVNGIYGKKMDHQNHHTISVSERKVEMKMRSGYYYFDFLGVGAS",–,–,–,36.3 ± 10.7,–

# From article PMC12069552, “Root stem cell homeostasis in Arabidopsis involves cell-type specific transcription factor complexes” (EMBO Reports, 2025)
